The target of experiment [1] is T1, Recombinant Human IL-23 (human, UniProt Q9NPF7;P29460). Briefly: cell-based or functional assay.
In experiment [2] the target is T1, Recombinant Human IL-23. Briefly: ELISA; human IL-23/IL-23R receptor/ligand inhibition ELISA; block buffer 1% BSA in PBS pH 7.4 with 4% Marvel milk; 0.1 mM PMSF added for trypsin-treated V56B2; protocol in the Supplementary Methods. Conditions: both partners purified.
Experiment [3] deals with T2, Recombinant Human IL-23 (human, UniProt Q9NPF7 20-189; P29460 23-328).
T2 construct: IL-23p19 subunit of human IL-23; IL-12p40 subunit, shared with IL-12; Heterodimer of p19 and p40; also called interleukin-23; source: bought: Sino Biologicals
T2 sequence (looked up) 1: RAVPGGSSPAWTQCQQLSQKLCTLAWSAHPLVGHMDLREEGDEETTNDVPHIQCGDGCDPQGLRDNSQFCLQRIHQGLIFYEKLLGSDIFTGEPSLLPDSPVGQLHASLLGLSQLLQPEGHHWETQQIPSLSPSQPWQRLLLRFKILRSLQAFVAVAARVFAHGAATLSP
T2 sequence (looked up) 2: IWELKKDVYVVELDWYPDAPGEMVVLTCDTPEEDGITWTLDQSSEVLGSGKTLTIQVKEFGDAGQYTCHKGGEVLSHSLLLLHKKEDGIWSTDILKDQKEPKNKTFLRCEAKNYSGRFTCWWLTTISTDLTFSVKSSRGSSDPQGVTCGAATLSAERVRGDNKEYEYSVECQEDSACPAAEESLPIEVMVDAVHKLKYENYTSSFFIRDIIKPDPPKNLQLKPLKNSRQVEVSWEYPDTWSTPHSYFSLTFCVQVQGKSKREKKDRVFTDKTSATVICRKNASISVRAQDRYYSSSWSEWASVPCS
The experiment is described as above. Conditions: both partners purified.

In experiment [4] the target is T3, Recombinant cynomolgus monkey IL-23 (cynomolgus monkey).
T3 construct: IL-23p19 subunit of cynomolgus monkey IL-23; IL-12p40 subunit of cynomolgus monkey IL-23; also called cIL-23; IL-23 from cynomolgus monkey; source: bought: Fusion Antibodies (custom preparation)
T3 chain 1: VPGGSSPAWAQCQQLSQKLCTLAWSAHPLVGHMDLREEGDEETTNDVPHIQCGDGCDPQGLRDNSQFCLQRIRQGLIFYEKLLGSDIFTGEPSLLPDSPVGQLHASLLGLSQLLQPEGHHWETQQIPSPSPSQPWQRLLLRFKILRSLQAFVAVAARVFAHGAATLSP
T3 chain 2: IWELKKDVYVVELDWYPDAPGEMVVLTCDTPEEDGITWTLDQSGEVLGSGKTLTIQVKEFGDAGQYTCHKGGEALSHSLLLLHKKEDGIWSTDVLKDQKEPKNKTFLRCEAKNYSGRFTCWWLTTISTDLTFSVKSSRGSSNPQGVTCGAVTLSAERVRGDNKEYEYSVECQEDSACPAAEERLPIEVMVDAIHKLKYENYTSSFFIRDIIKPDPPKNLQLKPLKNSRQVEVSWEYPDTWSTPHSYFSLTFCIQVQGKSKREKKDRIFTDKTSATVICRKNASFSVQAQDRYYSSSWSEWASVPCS
The experiment in a line: ELISA; cynomolgus monkey IL-23/IL-23R receptor/ligand inhibition ELISA; protocol in the Supplementary Methods. Conditions: both partners purified. (In general: An ELISA detects its analyte on a solid surface through an enzyme-linked reagent.)

In experiment [5] the target is T1, Recombinant Human IL-23. Briefly: SPR; Biacore; anti-p40 monoclonal antibody coupled to a CM5 chip and loaded with recombinant human IL-23 at 2 or 0.5 ug/mL; V900 at 0.02, 0.08, 0.3, 1.25 and 5 nM, 300 s on and 300 s off, 30 uL/min. Conditions: both partners purified. (Surface plasmon resonance follows binding to a sensor surface in real time, without labels.)

B1: single domain antibody 12G1, unoptimised anti-IL-23 domain antibody (VHH)
VHH: EVQLVESGGGLVQPGGSLRLSCAASVSIWSFKVMGWYRQVPGKQRELVATITTGGSPDYADSVKGRFTMSRDYDKRTVFLEMDSVKPEDAAVYYCNGRLWAHLTSSGHDVWGQGTRVTVSS
notes: llama-derived, isolated by phage display after immunisation with human IL-23; Parent of V900; also called clone 12G1; not shown: His6, C-terminal, kept; FLAG, C-terminal, kept
Regarding B1, in experiment [1], the “IC50 of inhibition of IL-17 production from murine splenocytes co-stimulated with murine IL-2 and human IL-23 (cellular potency in mouse splenocytes)” value was determined as 9.3 nM. Further, the IC50 (as a rule, the concentration that inhibits the measured activity by half) in experiment [2] amounted to 0.2 nM.

B2: Recombinant Human IL-23R-FC (Fc fusion, UniProt Q5VWK5 24-355, looked up)
chain: GITNINCSGHIWVEPATIFKMGMNISIYCQAAIKNCQPRKLHFYKNGIKERFQITRINKTTARLWYKNFLEPHASMYCTAECPKHFQETLICGKDISSGYPPDIPDEVTCVIYEYSGNMTCTWNAGKLTYIDTKYVVHVKSLETEEEQQYLTSSYINISTDSLQGGKKYLVWVQAANALGMEESKQLQIHLDDIVIPSAAVISRAETINATVPKTIIYWDSQTTIEKVSCEMRYKATTNQTWNVKEFDTNFTYVQQSEFYLEPNIKYVFQVRCQETGKRYWQPWSSLFFHKTPETVPQVTSKAFQHDTWNSGLTVASISTGHLTSDNRGDIG
notes: source: bought: R&D systems
With B2, the binding result in experiment [3] is “binds”.

B3: Vorabody V900, anti-IL-23 p19-specific single domain antibody (VHH)
VHH: DVQLVESGGGQVQPGGSLSLSCESSVSIWSFKVMGWFRQVPGKQRELVATITTGGSPDYSDSVKGRFTISRDYDKRTLYLQMNSLKPEDTAVYYCAGRLWAHITSSGHDVWGQGTQVTVSS
notes: 121 amino acids, 13.2 kDa; also called anti-IL-23 (V900); source: S. cerevisiae or Pichia pastoris shake flask cultures, purified (CaptoS ion exchange chromatography)
For the molecule B3, the “IC50 of inhibition of IL-17 production from murine splenocytes co-stimulated with murine IL-2 and human IL-23 (cellular potency in mouse splenocytes)” value in experiment [1] worked out at 10.7 nM. The 50% inhibitory concentration (IC50) in experiment [4] was 0.7 nM; in experiment [2], 0.2 nM. Besides, the dissociation constant (Kd) (as a rule, the equilibrium constant for the complex coming apart) in experiment [5] came to 0.032 nM.

The values are drawn from paper PMC8484351, “Preclinical development of a bispecific TNFα/IL-23 neutralising domain antibody as a novel oral treatment for inflammatory bowel disease” (Scientific Reports, 2021).
